Publication PMC9130890 (2022)

Molecular target: autologous SHIV_(1157ipd3N4) gp120 monomer (SHIV_(1157ipd3N4))
Test: BLI

B1: unmutated common ancestor (UCA) of the J038 lineage (antibody, V domains shown)
VH: QLQLQESGPGLVKPSETLSLTCAVSGGSISSNYWSWIRQPPGKGLEWIGRISGSGGSTDYNPSLKSRVTISTDTSKNQFSLKLSSVTAADTAVYYCAREVAEDDYGYYQPYFDYWGQGVLVTVSS
VL: DIQMTQSPSSLSASVGDRVTITCRASQGISSYLAWYQQKPGKAPKLLIYAASSLQSGVPSRFSGSGSGTDFTLTISSLQPEDFATYYCQQYNSLPLTFGGGTKVEIK
  Kd: 37.8 nM
  koff: 0.0023 s⁻¹
